Assay results as given in US20110014193A1 (JURIDICAL FDN THE CHEMO SERO THERAPEUTIC RES INST, published 2011).
Like-named read-outs stand apart in the source and are kept apart here. Blank lines part the entries; values can stand above or below the binder they belong to.

Assays:
Test in all cases: cell-based or functional assay
[1] = molecular target: T1, human α9 integrin molecule (human, UniProt Q13797 30-1035; P05556 21-798)
[2] = molecular target: T1, human α9 integrin molecule; remark: listed apart in the source
[3] = molecular target: T1, human α9 integrin molecule; remark: listed apart in the source
[4] = molecular target: T1, human α9 integrin molecule; remark: listed apart in the source
[5] = molecular target: T1, human α9 integrin molecule; remark: listed apart in the source
[6] = molecular target: T1, human α9 integrin molecule; remark: listed apart in the source
[7] = molecular target: T1, human α9 integrin molecule; remark: listed apart in the source
[8] = molecular target: T1, human α9 integrin molecule; remark: listed apart in the source
[9] = molecular target: T1, human α9 integrin molecule; remark: listed apart in the source

T1 sequence (Q13797 30-1035 limits assumed, chain 1 of 2): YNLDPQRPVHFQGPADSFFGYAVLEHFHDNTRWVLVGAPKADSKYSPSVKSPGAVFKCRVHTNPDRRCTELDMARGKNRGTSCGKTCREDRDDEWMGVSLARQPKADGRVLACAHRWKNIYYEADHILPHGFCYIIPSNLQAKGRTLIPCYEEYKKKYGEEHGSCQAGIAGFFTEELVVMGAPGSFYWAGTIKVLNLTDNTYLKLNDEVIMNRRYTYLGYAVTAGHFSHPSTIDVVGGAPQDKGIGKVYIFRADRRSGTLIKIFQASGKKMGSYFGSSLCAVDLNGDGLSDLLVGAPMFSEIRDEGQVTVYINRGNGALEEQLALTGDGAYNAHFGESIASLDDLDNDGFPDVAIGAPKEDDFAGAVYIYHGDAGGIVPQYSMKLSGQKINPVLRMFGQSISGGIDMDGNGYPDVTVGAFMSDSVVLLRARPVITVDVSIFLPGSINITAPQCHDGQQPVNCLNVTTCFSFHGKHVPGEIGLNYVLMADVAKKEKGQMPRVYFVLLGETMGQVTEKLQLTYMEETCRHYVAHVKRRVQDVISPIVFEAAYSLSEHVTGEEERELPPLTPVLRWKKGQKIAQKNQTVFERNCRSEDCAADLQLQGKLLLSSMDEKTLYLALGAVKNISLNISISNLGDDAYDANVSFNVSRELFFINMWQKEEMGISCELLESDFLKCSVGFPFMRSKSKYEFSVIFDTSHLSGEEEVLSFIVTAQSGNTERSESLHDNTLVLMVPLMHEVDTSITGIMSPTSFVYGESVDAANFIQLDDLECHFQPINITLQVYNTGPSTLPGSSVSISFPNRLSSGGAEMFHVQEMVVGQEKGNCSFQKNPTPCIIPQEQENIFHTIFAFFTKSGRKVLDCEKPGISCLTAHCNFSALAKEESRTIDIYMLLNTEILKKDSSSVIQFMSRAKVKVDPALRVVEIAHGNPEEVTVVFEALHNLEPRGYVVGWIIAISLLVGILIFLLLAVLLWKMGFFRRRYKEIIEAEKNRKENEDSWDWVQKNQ
T1 sequence (P05556 21-798 limits assumed, chain 2 of 2): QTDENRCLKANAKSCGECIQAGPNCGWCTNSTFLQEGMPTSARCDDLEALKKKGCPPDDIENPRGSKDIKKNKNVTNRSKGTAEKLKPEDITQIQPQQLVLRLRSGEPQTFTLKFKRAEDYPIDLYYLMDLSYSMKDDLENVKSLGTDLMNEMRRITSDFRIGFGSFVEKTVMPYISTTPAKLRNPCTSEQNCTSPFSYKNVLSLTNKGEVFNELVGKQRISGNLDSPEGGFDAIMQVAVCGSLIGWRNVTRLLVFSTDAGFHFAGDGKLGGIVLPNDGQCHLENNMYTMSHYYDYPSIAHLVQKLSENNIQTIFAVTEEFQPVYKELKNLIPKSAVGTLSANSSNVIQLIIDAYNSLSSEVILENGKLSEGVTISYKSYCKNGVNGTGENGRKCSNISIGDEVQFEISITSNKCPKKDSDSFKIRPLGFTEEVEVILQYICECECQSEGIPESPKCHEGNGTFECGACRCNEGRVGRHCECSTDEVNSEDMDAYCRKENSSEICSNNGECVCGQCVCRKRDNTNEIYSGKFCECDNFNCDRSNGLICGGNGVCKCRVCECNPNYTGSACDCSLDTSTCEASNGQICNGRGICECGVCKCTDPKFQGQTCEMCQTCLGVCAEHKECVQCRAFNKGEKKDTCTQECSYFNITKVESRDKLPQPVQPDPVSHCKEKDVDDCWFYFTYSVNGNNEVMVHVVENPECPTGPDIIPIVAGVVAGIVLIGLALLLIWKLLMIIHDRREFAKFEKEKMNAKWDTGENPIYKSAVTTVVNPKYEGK

average cell adhesion inhibitory activity IC50, SW480/hα9 cells on human Tenascin C-RAA [1]: 0.041 µg/mL
average cell adhesion inhibitory activity IC50, SW480/hα9 cells on human VCAM-1/Ig [1]: 0.077 µg/mL
average of IC50 values, cell adhesion inhibition test, SW480/hα9 cells on nOPN-RAA [1]: 0.039 µg/mL
IC50 (µg/mL), cell adhesion inhibition test, SW480/hα9 cells on nOPN-RAA [2]: 0.039 µg/mL
IC50 (µg/mL), cell adhesion inhibition test, SW480/hα9 cells on nOPN-RAA [3]: 0.07 µg/mL
IC50 (µg/mL), cell adhesion inhibition test, SW480/hα9 cells on nOPN-RAA [4]: 0.025 µg/mL
IC50 (µg/mL), cell adhesion inhibition test, SW480/hα9 cells on nOPN-RAA [5]: 0.049 µg/mL
IC50 (µg/mL), cell adhesion inhibition test, SW480/hα9 cells on nOPN-RAA; value in parentheses, measured simultaneously with RY9A2v5(AL)01 [6]: 0.052 µg/mL
IC50 (µg/mL), cell adhesion inhibition test, SW480/hα9 cells on nOPN-RAA; value in parentheses, measured simultaneously with RY9A2v5(AW)01 [6]: 0.037 µg/mL
IC50 (µg/mL), cell adhesion inhibition test, SW480/hα9 cells on nOPN-RAA; value in parentheses, measured simultaneously with RY9A2v5(SW)01 [6]: 0.052 µg/mL
IC50 (µg/mL), cell adhesion inhibition test, SW480/hα9 cells on nOPN-RAA; value in parentheses, measured simultaneously with RY9A2v5(WE)01 [6]: 0.052 µg/mL
specific activity (IC50 relative to mouse Y9A2 = 1), cell adhesion inhibition test on nOPN-RAA [7]: 1 ratio of IC50 to mouse Y9A2
specific activity (IC50 relative to mouse Y9A2 = 1), cell adhesion inhibition test on human Tenascin C-RAA [8]: 1 ratio of IC50 to mouse Y9A2
specific activity (IC50 relative to mouse Y9A2 = 1), cell adhesion inhibition test on human VCAM-1 [8]: 1 ratio of IC50 to mouse Y9A2
inhibitory rate (%) of migration of SW480/hα9 cell against nOPN-RAA, antibody at 5 µg/mL [9]: 28%
B1: mouse Y9A2 antibody (antibody, V domains shown)
VH: QVQLQQSGAELANPGASVKMSCKASGYTLTTYWMHWVKQRPGQGLEWIGYINPSSGYTEYNQKFKDKATLTADKSSSTAYMQLTSLTSEDSAVYYCAIYGDYGDFYFDYWGQGTTLTVSS
VL: SIVMTQTPKFLLVSAGDRVTMTCKASQSVNTDVAWFQQKPGQSPKLLIYFASNHYTGVPDRFTGSGYGTDFTFTISTVQAEDLAIYFCRQDYSSPFTFGGGTKLEIKR

IC50 (µg/mL), cell adhesion inhibition test, SW480/hα9 cells on nOPN-RAA [2]: 0.038 µg/mL
B2: chimeric Y9A2 antibody (antibody, V domains shown)
VH: QVQLQQSGAELANPGASVKMSCKASGYTLTTYWMHWVKQRPGQGLEWIGYINPSSGYTEYNQKFKDKATLTADKSSSTAYMQLTSLTSEDSAVYYCAIYGDYGDFYFDYWGQGTTLTVSS
VL: SIVMTQTPKFLLVSAGDRVTMTCKASQSVNTDVAWFQQKPGQSPKLLIYFASNHYTGVPDRFTGSGYGTDFTFTISTVQAEDLAIYFCRQDYSSPFTFGGGTKLEIKR

IC50 (µg/mL), cell adhesion inhibition test, SW480/hα9 cells on nOPN-RAA [4]: 0.012 µg/mL
B9: RY9A2v11011 antibody (antibody, V domains shown)
VH: QVQLVQSGAEVKKPGSSVKMSCKASGYTLTTYWMHWVKQRPGQGLEWIGYINPSSGYTEYNQKFQGRVTITADKSTSTAYMELSSLRSEDTAVYYCAIYGDYGDFYFDYWGQGTTVTVSS
VL: DIQMTQSPSSLSASVGDRVTITCQASQSVNTDVAWYQQKPGKAPKLLIYFASNHYTGVPSRFSGSGSGTDFTFTISSLQPEDIATYYCRQDYSSPFTFGGGTKVEIKR

IC50 (µg/mL), cell adhesion inhibition test, SW480/hα9 cells on nOPN-RAA [3]: 0.058 µg/mL
B11: RY9A2v801 antibody (antibody, V domains shown)
VH: QVQLVQSGAEVKKPGSSVKVSCKASGYTLTTYWMHWVRQAPGQGLEWMGYINPSSGYTEYNQKFKDRVTITADKSTSTAYMELSSLRSEDTAVYYCAIYGDYGDFYFDYWGQGTTVTVSS
VL: DIQMTQSPSSLSASVGDRVTITCKASQSVNTDVAWYQQKPGKAPKLLIYFASNHYTGVPSRFSGSGSGTDFTFTISSLQPEDIATYYCRQDYSSPFTFGGGTKVEIKR

IC50 (µg/mL), cell adhesion inhibition test, SW480/hα9 cells on nOPN-RAA [4]: 0.008 µg/mL
B15: RY9A2v11012 antibody (antibody, V domains shown)
VH: QVQLVQSGAEVKKPGSSVKMSCKASGYTLTTYWMHWVKQRPGQGLEWIGYINPSSGYTEYNQKFQGRVTITADKSTSTAYMELSSLRSEDTAVYYCAIYGDYGDFYFDYWGQGTTVTVSS
VL: DIQMTQSPSSLSASVGDRVTITCRASQSVNTDVAWYQQKPGKAPKLLIYFASNHYTGVPSRFSGSGSGTDFTFTISSLQPEDIATYYCRQDYSSPFTFGGGTKVEIKR

The next lines start with the binder.

B3: RY9A2v501 antibody (antibody, V domains shown)
VH: QVQLVQSGAEVKKPGSSVKMSCKASGYTLTTYWMHWVKQRPGQGLEWIGYINPSSGYTEYNQKFKDRVTITADKSTSTAYMELSSLRSEDTAVYYCAIYGDYGDFYFDYWGQGTTVTVSS
VL: DIQMTQSPSSLSASVGDRVTITCKASQSVNTDVAWYQQKPGKAPKLLIYFASNHYTGVPSRFSGSGSGTDFTFTISSLQPEDIATYYCRQDYSSPFTFGGGTKVEIKR
IC50 (µg/mL), cell adhesion inhibition test, SW480/hα9 cells on nOPN-RAA [3]: 0.054 µg/mL

B4: RY9A2v11(M34L)012 antibody (antibody, human IgG1, kappa, V domains shown)
VH: QVQLVQSGAEVKKPGSSVKMSCKASGYTLTTYWLHWVKQRPGQGLEWIGYINPSSGYTEYNQKFQGRVTITADKSTSTAYMELSSLRSEDTAVYYCAIYGDYGDFYFDYWGQGTTVTVSS
VL: DIQMTQSPSSLSASVGDRVTITCRASQSVNTDVAWYQQKPGKAPKLLIYFASNHYTGVPSRFSGSGSGTDFTFTISSLQPEDIATYYCRQDYSSPFTFGGGTKVEIKR
specific activity (IC50 relative to mouse Y9A2 = 1), cell adhesion inhibition test on nOPN-RAA [7]: 0.23 ratio of IC50 to mouse Y9A2
specific activity (IC50 relative to mouse Y9A2 = 1), cell adhesion inhibition test on human Tenascin C-RAA [8]: 0.35 ratio of IC50 to mouse Y9A2
specific activity (IC50 relative to mouse Y9A2 = 1), cell adhesion inhibition test on human VCAM-1 [8]: 0.44 ratio of IC50 to mouse Y9A2
inhibitory rate (%) of migration of SW480/hα9 cell against nOPN-RAA, antibody at 5 µg/mL [9]: 84%

B5: RY9A2v5(SW)01 antibody (antibody, V domains shown)
VH: QVQLVQSGAEVKKPGSSVKMSCKASGYTLTTYWMHWVKQRPGQGLEWIGYINPSSGYTEYNQKFKDRVTITADKSTSTAYMELSSLRSEDTAVYYCAIYGDYGSWYFDYWGQGTTVTVSS
VL: DIQMTQSPSSLSASVGDRVTITCKASQSVNTDVAWYQQKPGKAPKLLIYFASNHYTGVPSRFSGSGSGTDFTFTISSLQPEDIATYYCRQDYSSPFTFGGGTKVEIKR
IC50 (µg/mL), cell adhesion inhibition test, SW480/hα9 cells on nOPN-RAA [6]: 0.035 µg/mL

B6: RY9A2v5(AW)01 antibody (antibody, V domains shown)
VH: QVQLVQSGAEVKKPGSSVKMSCKASGYTLTTYWMHWVKQRPGQGLEWIGYINPSSGYTEYNQKFKDRVTITADKSTSTAYMELSSLRSEDTAVYYCAIYGDYGAWYFDYWGQGTTVTVSS
VL: DIQMTQSPSSLSASVGDRVTITCKASQSVNTDVAWYQQKPGKAPKLLIYFASNHYTGVPSRFSGSGSGTDFTFTISSLQPEDIATYYCRQDYSSPFTFGGGTKVEIKR
IC50 (µg/mL), cell adhesion inhibition test, SW480/hα9 cells on nOPN-RAA [6]: 0.015 µg/mL

B7: RY9A2v5(WE)01 antibody (antibody, V domains shown)
VH: QVQLVQSGAEVKKPGSSVKMSCKASGYTLTTYWMHWVKQRPGQGLEWIGYINPSSGYTEYNQKFKDRVTITADKSTSTAYMELSSLRSEDTAVYYCAIYGDYGWEYFDYWGQGTTVTVSS
VL: DIQMTQSPSSLSASVGDRVTITCKASQSVNTDVAWYQQKPGKAPKLLIYFASNHYTGVPSRFSGSGSGTDFTFTISSLQPEDIATYYCRQDYSSPFTFGGGTKVEIKR
IC50 (µg/mL), cell adhesion inhibition test, SW480/hα9 cells on nOPN-RAA [6]: 0.022 µg/mL

B8: RY9A2v5(AL)01 antibody (antibody, V domains shown)
VH: QVQLVQSGAEVKKPGSSVKMSCKASGYTLTTYWMHWVKQRPGQGLEWIGYINPSSGYTEYNQKFKDRVTITADKSTSTAYMELSSLRSEDTAVYYCAIYGDYGALYFDYWGQGTTVTVSS
VL: DIQMTQSPSSLSASVGDRVTITCKASQSVNTDVAWYQQKPGKAPKLLIYFASNHYTGVPSRFSGSGSGTDFTFTISSLQPEDIATYYCRQDYSSPFTFGGGTKVEIKR
IC50 (µg/mL), cell adhesion inhibition test, SW480/hα9 cells on nOPN-RAA [6]: 0.032 µg/mL

B10: RY9A2v12(M34L)012 antibody (antibody, human IgG1, kappa, V domains shown)
VH: QVQLVQSGAEVKKPGSSVKVSCKASGYTLTTYWLHWVRQAPGQGLEWMGYINPSSGYTEYNQKFQGRVTITADKSTSTAYMELSSLRSEDTAVYYCAIYGDYGDFYFDYWGQGTTVTVSS
VL: DIQMTQSPSSLSASVGDRVTITCRASQSVNTDVAWYQQKPGKAPKLLIYFASNHYTGVPSRFSGSGSGTDFTFTISSLQPEDIATYYCRQDYSSPFTFGGGTKVEIKR
specific activity (IC50 relative to mouse Y9A2 = 1), cell adhesion inhibition test on nOPN-RAA [7]: 0.23 ratio of IC50 to mouse Y9A2
specific activity (IC50 relative to mouse Y9A2 = 1), cell adhesion inhibition test on human Tenascin C-RAA [8]: 0.26 ratio of IC50 to mouse Y9A2
specific activity (IC50 relative to mouse Y9A2 = 1), cell adhesion inhibition test on human VCAM-1 [8]: 0.95 ratio of IC50 to mouse Y9A2
inhibitory rate (%) of migration of SW480/hα9 cell against nOPN-RAA, antibody at 5 µg/mL [9]: 86%

B12: RY9A2v5(IAW)01 antibody (antibody, human IgG1, kappa, V domains shown)
VH: QVQLVQSGAEVKKPGSSVKMSCKASGYTLTTYWIHWVKQRPGQGLEWIGYINPSSGYTEYNQKFKDRVTITADKSTSTAYMELSSLRSEDTAVYYCAIYGDYGAWYFDYWGQGTTVTVSS
VL: DIQMTQSPSSLSASVGDRVTITCKASQSVNTDVAWYQQKPGKAPKLLIYFASNHYTGVPSRFSGSGSGTDFTFTISSLQPEDIATYYCRQDYSSPFTFGGGTKVEIKR
specific activity (IC50 relative to mouse Y9A2 = 1), cell adhesion inhibition test on nOPN-RAA [7]: 0.29 ratio of IC50 to mouse Y9A2
specific activity (IC50 relative to mouse Y9A2 = 1), cell adhesion inhibition test on human Tenascin C-RAA [8]: 0.44 ratio of IC50 to mouse Y9A2
specific activity (IC50 relative to mouse Y9A2 = 1), cell adhesion inhibition test on human VCAM-1 [8]: 1 ratio of IC50 to mouse Y9A2
inhibitory rate (%) of migration of SW480/hα9 cell against nOPN-RAA, antibody at 5 µg/mL [9]: 109%

B13: RY9A2v5(M34L)01 antibody (antibody, V domains shown)
VH: QVQLVQSGAEVKKPGSSVKMSCKASGYTLTTYWLHWVKQRPGQGLEWIGYINPSSGYTEYNQKFKDRVTITADKSTSTAYMELSSLRSEDTAVYYCAIYGDYGDFYFDYWGQGTTVTVSS
VL: DIQMTQSPSSLSASVGDRVTITCKASQSVNTDVAWYQQKPGKAPKLLIYFASNHYTGVPSRFSGSGSGTDFTFTISSLQPEDIATYYCRQDYSSPFTFGGGTKVEIKR
IC50 (µg/mL), cell adhesion inhibition test, SW480/hα9 cells on nOPN-RAA [5]: 0.021 µg/mL

B14: RY9A2v5(M34I)01 antibody (antibody, V domains shown)
VH: QVQLVQSGAEVKKPGSSVKMSCKASGYTLTTYWIHWVKQRPGQGLEWIGYINPSSGYTEYNQKFKDRVTITADKSTSTAYMELSSLRSEDTAVYYCAIYGDYGDFYFDYWGQGTTVTVSS
VL: DIQMTQSPSSLSASVGDRVTITCKASQSVNTDVAWYQQKPGKAPKLLIYFASNHYTGVPSRFSGSGSGTDFTFTISSLQPEDIATYYCRQDYSSPFTFGGGTKVEIKR
IC50 (µg/mL), cell adhesion inhibition test, SW480/hα9 cells on nOPN-RAA [5]: 0.024 µg/mL
